This is an account of results in the nanobody polyreactivity screen of Harvey et al. (2022).

A short description of the series: yeast display, Sf9 membrane polyspecificity reagent, FACS + sequencing; frameworks hold sequencing errors. In short, it runs like this:
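Sorting gates, low and high (top ~1%), were placed on anti-HA fluorescence to track expression and on streptavidin fluorescence to track reagent binding. A clone's polyreactivity label is taken from the gate it came out of. The reagent was 10% biotinylated, detergent-solubilized Sf9 membrane, applied for 1 hour at 4 °C to galactose-induced yeast display cells.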
Take “QVQLVESGGGLVQAGGSLRLSCSASGLIFPSNTMGWYRQAPGTERELVAAITFSGDSTNYADSVKGRFTISRDNAKNTVYVQMNSLKPEDTAVYYCAASQVSDTTRFGYWGQGTQVTVSS”: the “polyreactivity (PSR sort gate)” value is listed as “low polyreactivity”.
Consider “QVQLVESGGGLVQAGGSLRLSCSASGNIFFGYAMGLYRQAPGKERQFVASITKIGGSTYYADSVKGRFTISRDNAKNTVYLQLNSLKPEDTAVYYCAARLGHSVNPGGERWDVVYWGQGTQVTVSS”, for which the “polyreactivity (PSR sort gate)” value is on record as “low polyreactivity”.
“QVQLVESGGGLVQAGGSLRLSCSASGRIFHRYTMGWYRQSPGKEREFVAAITTRAGSTYYADSVKGRFTISRDNAKYTVFLQMNSLKPEDTAVYYCNIRRHSMFGGTTTRYDFWGQGTQVTVSS”: the “polyreactivity (PSR sort gate)” value is listed as “high polyreactivity”.
Take “QVQLVESGGGLVQAGGSLRLSCSASGRIFSGYAMGWYRQAPGKERELVAAITSVGSTNYADSVKGRFTISRDNAKNTVYLQMNSLKTEDTAVYYCAARSQIYYRYRSYGYWGQGTQVTVSS”: the “polyreactivity (PSR sort gate)” value is on record as “high polyreactivity”.
In the case of “QVQLVESGGGLVQAGGSLRLSCSASGRIFVIYDMGWYRQAPGKEWEFVAAISWRTGSTYYADSVKGRFTISRDNAKNTVYLQMNSLKPEDTAVYYCAASIGLVHYDYWGQGTQVTVSS” it was “low polyreactivity”.
The result for “QVQLVESGGGLVQAGGSLRLSCSASGRNFWFYAKGWYRQAPGKERELVAAISSGGSTNYADSVKGRFTISRDNAKNTVYLQMNSLKPEDTAVYYCAKVGNIPYGTRYYSNRYDYWGQGTLVTVSS” reads “low polyreactivity”; that for “QVQLVESGGGLVQAGGSLRLSCSASGRTFGAYAMGWSRQAPGKERELVASISRSGGTTYYADSVKGRFTISRDNAKNTVYLQMNSLKPEDTAVYYCAAQYVRYGHYYWGQGTQVTVSS”, “high polyreactivity”.
The result for “QVQLVESGGGLVQAGGSLRLSCSASGSIFGRKMGWYRQAPVKERELVAAITWSGGRTYYADSVKGRFTISRDNAKNTVYLLMNCLKPEDTAVYYCNAVRRYTGYAFKDDYWGQGNQVTVSS” reads “high polyreactivity”; that for “QVQLVESGGGLVQAGGSLRLSCSASGSIFGVYTMGWFRQAPGKERELVAAITSAGSTYADSVKGRFTISRDNAKNTVYLQMNSLKPEDTAVYYCNAESVLLSVLVELREPHEYWGQGTQVTVSS”, “low polyreactivity”; that for “QVQLVESGGGLVQAGGSLRLSCSASGSIFNYYTMGWDRQAPGKERELVAVITWSDDSTYYADSVKGRFTISRDNAKNTVYLQMNSLKPEDTAVYYCNARSWGWYRIAYGYWGQGTQVTVSS”, “low polyreactivity”.
For the sequence “QVQLVESGGGLVQAGGSLRLSCSASGSIFPKNAMGWYRQAPGKERELVARISGSGGSTYYADSVKGRFTISRDNAKNTVYLQMNSLKPEDTAVYYCAKDQSKIYSSWSGYYYWGQGTQVTVSS”, the “polyreactivity (PSR sort gate)” value was “low polyreactivity”.
With “QVQLVESGGGLVQAGGSLRLSCSASGSNFGYYAMGWYRQAPGKERELVASITWTGGSTYYADSVKGRFTISRDNAKNTVYLQMNSLKPEDTAVYYCAAQLEPSYWFWTGYGYWGQGTQVTVSS”, the “polyreactivity (PSR sort gate)” value was “high polyreactivity”.
In the case of “QVQLVESGGGLVQAGGSLRLSCSASGSTFGYNAMGWYRQAPGKERELVAAILFSGGSTFYADSVKGRFTISRDNAKNTVYLQMNSLKQEDTAVYYCADYAGYYAYDSWGQGTQVTVSS” it was “low polyreactivity”.
The result for “QVQLVESGGGLVQAGGSLRLSCSASGSTFTYYAIGWYRTAPGEERELGAAISWRGTSTYYADSVKGRFTISRDNAKNSVYLQMNSLKTEETAVYSCAGRGLWPYDYWGQGTQVTVSS” reads “low polyreactivity”; that for “QVQLVESGGGLVQAGGSLRLSCSASGTISGLYAMGWYRQATGKERELVARIRWRGDSTYYADSVKGRFTISRDNAKNTVYLQMNSLNPEDTAVFYCAASAYSGKVNKYNYWGQGTQVTVSS”, “high polyreactivity”; that for “QVQLVESGGGLVQAGGSLRLSCSASGYTFSSYGMGWYRQAPGKERELVAAITGSTGTTYYADSVQGRFTISRDNAKNTVYLQMISLKPEDTAVYYCAAEYQSYPWYDYWGQGTQVTVSS”, “high polyreactivity”.
In the case of “QVQLVESGGGLVQAGGSLRLSCSASRSTFPGYAMGWYRQAPGKERELVAAISVSGDRTYYADSVKRRFTISRDNPQNTVYLQMNRLKPEDTAVYYCAVRTRYRGSGVWVGNYSWGQGTQVTVSS” it was “high polyreactivity”.
Consider “QVQLVESGGGLVQAGGSLRLSCSAYGFIFTGYAMGWYRQAPGKEREFVAAISYSGGSTYADSVKGRFTISRDNAKNSVYLQMNSLKPEDTAVYYCNARQGLWRYTAENDYWGQGTQVTVSS”, for which the “polyreactivity (PSR sort gate)” value is on record as “low polyreactivity”.
In the case of “QVQLVESGGGLVQAGGSLRLSCTASGITSGSYAMGWYRQAPGKERELVAAISNSGSTYYADSVKGRFTISRDNAKNSVYLQMNSLKPEDTAVYYCNADDWWGGYDYWGQGTQVTVSS” it was “low polyreactivity”.
The result for “QVQLVESGGGLVQAGGSLRLSCVASGFIFRRNAMGWYRQAPGKERELVATISSGGNTYYADSVKGRFTISRDNAKNTVYLQMNSLKPVDTAVYYCIASDGLPSKLNVYVEFDYWGQCTQVTVSS” reads “low polyreactivity”; that for “QVQLVESGGGLVQAGGSLRLSCVASGFTFIRYAMGWYRQAPGKERELVASITRGGSTYYADSVKGRFTISRDNAKYTVYLQMNSLKPEDTAVYYCATTSYYGYDYWGQGTQVTVSS”, “high polyreactivity”.
In the case of “QVQLVESGGGLVQAGGSLRLSCVASGRIFARNAMGWYRQAPGKERELVAAITWSVGSTYYADSVKGRFTISRDNAKNTVYLQMISLKPEDTAVYYCAERYWYSRYWYDYWGQGTQVTVSS” it was “high polyreactivity”; in that of “QVQLVESGGGLVQAGGSLRLSCVASGRTFSRYAMGWYRQAPGKERELVAAISLRCGRTKYADSVKGRFTISRDNAKNTVYLQMNSLKPEDTAVYYCAADIYYGYPWRYHAGYYEGFDYWGQGTQVTVSS”, “high polyreactivity”; in that of “QVQLVESGGGLVQAGGSLRLSFAASGGTFYTYVMGWYRQAPGKERELVAAISGSGGSTYYADSVKGRFTISRDNAKNTVYLQMNSLKPEDTAVYYCAAEGFVTWYRQGQVYYWGQGTQVTVSS”, “high polyreactivity”.
“QVQLVESGGGLVQAGGSLRLSFAASGIIFDINAMGWYRQAPGKERELVAAITTSVDSTYYADSVKGRFTISRDNAKNTVYLQMNSLKPEDTAVYYCAAGPGDSGDDYWGQGTQVTVSS”: the “polyreactivity (PSR sort gate)” value is listed as “low polyreactivity”.
In the case of “QVQLVESGGGLVQAGGSLRLSFAASGIIFRYSAMGWYRQEPGKERELVAAISRSGARTYYADSVKGRFTISRDNAKNTVYLQMNSLKPEDTAVYYCATDPTSGRFYYWGQGTQVTVSS” it was “high polyreactivity”; in that of “QVQLVESGGGLVQAGGSLRLSFAASGLIIFSYAMGWYRHAPGKEREIVASIRSSGGSTNYADSVKGRFTISRDNAKNTVYLQMYSLKPEDTAVYYCATRSKTSGRSYIPFNYWGQGTQVTVSS”, “high polyreactivity”; in that of “QVQLVESGGGLVQAGGSLRLSFAASGLTFYTNAMGWYRQAPGKETELVATITSGGRTSYADSVKGRFTISRDNAKNTVYLEMNRLKPEDTAVYYCADTTGWYGARYGYWGQGTQVTVSS”, “high polyreactivity”.
Take “QVQLVESGGGLVQAGGSLRLSFAASGRTFNTYTMGWYRQAPGKERELVAAITGTGGSTFYADSVKGRFTISRDNAKNTVYLQMNSLKPEDTAVYYCNADLEVTIGVYTDGFDSDYWGQGTQVTVSS”: the “polyreactivity (PSR sort gate)” value is “low polyreactivity”.
Consider “QVQLVESGGGLVQAGGSLRLSFAASGSIFGFNAMGWYRPAPGKERELVAAISSGGITNYADSVKGRFTISRDNAKNTVYLQMNSLKAEDTAVYYCAARAVSEDYYEFDYWGQGTQVTVSS”, for which the “polyreactivity (PSR sort gate)” value is “low polyreactivity”.
The result for “QVQLVESGGGLVQAGGSLRLSFAASGSILYIYAMGWYRQAPGKERELVASISRSGGRTYDADSVNGRFTISRDNAKNTVYLQMNSLKPEDTAVYYCDAVTGGGSKMDYWGQGTQVTVSS” reads “high polyreactivity”; that for “QVQLVESGGGLVQAGGSLRLSFAASGSTFDNYAMGWYRQAPGKERELVAAIRRGGSTYYADSVKGRFTISRDNAKNTVYLQMNSLKPEDTAVYYCNAPITRFEGYFYWGQGTQVTVSS”, “high polyreactivity”.
In the case of “QVQLVESGGGLVQAGGSLRLSFAASGSTFTYNDMGWYRQAPGKERELVARITFSSGRTYYADSVKGRFTISRDNAKNTVYLQMNSLKPEDTAVYYCARQWYWRPGYYIGQGYEYWGQGTQVTVSS” it was “low polyreactivity”.
In the case of “QVQLVESGGGLVQAGGSLRLSFPASGFTFFGYAMGWYRQAPGKERELVAAISTIDGDTYYADSVKGRFTISRDNAKNTVYLQMNSLKPEDTAVYYCAADDYIDGDDYWGQGTQVTVSS” it was “low polyreactivity”.
As for “QVQLVESGGGLVQAGGSLRLSGAASGFIFIHYAMGWYRQAPGKERELVAAIRASGTSTYYADSVKGRFTISRDNAKNTVYLQMNSLKPEDTAVYYCAAQGYLRLRTHFNYWGQGTQVTLSS”, the “polyreactivity (PSR sort gate)” value is “low polyreactivity”.
The result for “QVQLVESGGGLVQAGGSLRLSGAASGLIFWGYTMGWYRQAPGKERVLVAAISRRGGRTYYADSVKGRFTISRDNAKNTVYLQMHSLKPEDTAVDYCNADITSSGPKSDYWGQGTQVTVSS” reads “high polyreactivity”.
The result for “QVQLVESGGGLVQAGGSLRLSGAASGRTLVPYAMGWYRQAPGKERELVAAISSGGSTNYADSVKGRFRISRDNAKNTVYLQMNSLKPEDTAVYYCAYCGQGTQVTVSS” reads “low polyreactivity”; that for “QVQLVESGGGLVQAGGSLRLSGAASGSIFNRNAMGWYRQAPGKESELVARISWTAGSTYYADSEKARFTISRDYAKNTVYLQMNSLKPEDTAVYYCNDVKGYYDLYDKFDYWGQGTQVTVSS”, “low polyreactivity”.
As for “QVQLVESGGGLVQAGGSLRLSGAASGSIFYSNARGWYRQAPGKERELVAAITVGGGRTYYADSVKGRFTISRDNAKNTVYLQMNSLKPEDTAVYYCAADSHASTYDYWGQGTQVTVSS”, the “polyreactivity (PSR sort gate)” value is “low polyreactivity”.
In the case of “QVQLVESGGGLVQAGGSLRLSGAASGSTCYFNAQGWFRPAPGKERELVAAITYSGGSTYYADSVKGRFTISRDNAKNTVYLQLNSLKPEDTAVYYCAAQWRRHSTRSRYYYWGQGTQVTVSS” it was “high polyreactivity”.
In the case of “QVQLVESGGGLVQAGGSLRLSLAASGLSLRNYAMGWYRQAPGKERELVADITTGGGRTYYADSVKGRFTISRDNAKNTVYLQMNSLKPEDTAVYYCAAPTHLHGHGNQNEFYYWGQGTQVTVSS” it was “low polyreactivity”.
